B1: Suppressor of kinetochore protein 1 (Schizosaccharomyces pombe (strain ATCC 38366 / 972)), Q9Y709 (parent)
chain: MSKIKLISSDNEEFVVDQLIAERSMLIKNMLEDVGEINVPIPLPNVSSNVLRKVLEWCEHHKNDLYSGTEEESDIRLKKSTDIDEWDRKFMAVDQEMLFEIVLASNYLDIKPLLDTGCKTVANMIRGKSPEDIRKTFNIPNDFTPEEEEQIRKENEWAEDR
partner: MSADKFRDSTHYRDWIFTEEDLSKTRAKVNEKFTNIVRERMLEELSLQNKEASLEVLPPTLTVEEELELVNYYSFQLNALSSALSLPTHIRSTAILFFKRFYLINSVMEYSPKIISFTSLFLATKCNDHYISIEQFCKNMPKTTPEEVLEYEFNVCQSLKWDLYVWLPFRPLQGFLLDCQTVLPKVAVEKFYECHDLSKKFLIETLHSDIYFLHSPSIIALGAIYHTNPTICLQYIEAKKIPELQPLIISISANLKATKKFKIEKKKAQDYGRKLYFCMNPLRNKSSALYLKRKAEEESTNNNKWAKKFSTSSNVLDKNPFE

Variants of: B1
Conditions: with cgm2_schpo mcs2, P36613

Variant | effect of a mutation on the interaction
I139N | decreasing interaction

Source: IntAct's records for PubMed 15555586
